The text below walks through data of paper PMC3105379.

Where two headings read alike, the source gives them in different places.

What is called Kd is the free concentration of one partner at which half of the binding sites on the other are occupied at equilibrium, for simple one-to-one binding. High values mean a looser complex, low ones a tighter complex.

Assay in all cases: other fluorescence titration
Assay [1] addresses BIQG^6R, variant of BIQ with replacement R for the G at position 6.
Assay [2] addresses BIQG^6M, variant of BIQ with replacement M for the G at position 6.
For assay [3], the target named is BIQG^6A, variant of BIQ with replacement A for the G at position 6.
Assay [4] has as its target BIQ, fluorescent reporter containing an IQ domain sequence derived from neuromodulin (UniProt P17677).
The target in assay [5] is BIQG^6A, variant of BIQ with replacement A for the G at position 6. The source holds these as a separate data set.
For assay [6], the target named is BIQ, fluorescent reporter containing an IQ domain sequence derived from neuromodulin (UniProt P17677). This is another data set of the same source.

“calmodulin (native CaM) (from UniProt P0DP23 1-149) (natural protein)”: the Kd worked out at 0.4 µM in assay [1]; 0.4 µM in assay [2]; 0.9 µM in assay [3]; 2.9 µM in assay [4]; 5.4 µM in assay [5]; 2.4 µM in assay [6].
